# From patent publication US7657380
# Substitutions are numbered along the chain they refer to.
# B1: AC10 H3/L3.2 (antibody, IgG1, name in Kabat numbering, V domains shown)
# VH: QIQLVQSGPEVKKPGASVKVSCKASGYTFTDYYITWVRQAPGQGLEWMGWIYPGSGNTKYNEKFQGRFVFSVDTSASTAYLQISSLKAEDTAVYFCANYGNYWFAYWGQGTLVTVSS
# VL: EIVLTQSPDSLAVSLGERATINCKASQSVDFDGDSYMNWYQQKPGQPPKVLIYAASNLESGIPARFSGSGSGTDFTLTINSLEAEDAATYYCQQSNEDPWTFGGGTKVEIK
# B2: AC10 H3/L3.20 (antibody, IgG1, name in Kabat numbering, V domains shown)
# VH: B1 VH
# VL: B1 VL with E1D, D34Y
# B3: AC10 H3/L3.37 (antibody, IgG1, name in Kabat numbering, V domains shown)
# VH: B1 VH
# VL: B1 VL with E1D, N57T
# B4: AC10 H3/L3.25 (antibody, IgG1, name in Kabat numbering, V domains shown)
# VH: B1 VH
# VL: B1 VL with E1D, M37L
# B5: AC10 H3/L3.13 (antibody, IgG1, name in Kabat numbering, V domains shown)
# VH: B1 VH
# VL: B1 VL with E1D, F31D
# B6: AC10 H3/L3.9 (antibody, IgG1, name in Kabat numbering, V domains shown)
# VH: B1 VH
# VL: B1 VL with E1D, V29I
# B7: AC10 H3/L3.44 (antibody, IgG1, name in Kabat numbering, V domains shown)
# VH: B1 VH
# VL: B1 VL with E1D, A64S
# B8: AC10 H3/L3.41 (antibody, IgG1, name in Kabat numbering, V domains shown)
# VH: B1 VH
# VL: B1 VL with E1D, S60T
# B9: AC10 H3/L3.17 (antibody, IgG1, name in Kabat numbering, V domains shown)
# VH: B1 VH
# VL: B1 VL with E1D, D34K
# B10: AC10 H3/L3.16 (antibody, IgG1, name in Kabat numbering, V domains shown)
# VH: B1 VH
# VL: B1 VL with E1D, D32N
# B11: AC10 H3/L3.34 (antibody, IgG1, name in Kabat numbering, V domains shown)
# VH: B1 VH
# VL: B1 VL with E1D, A54S
# B12: AC10 H3/L3.53 (antibody, IgG1, name in Kabat numbering, V domains shown)
# VH: B1 VH
# VL: B1 VL with E1D, N96S
# B13: AC10 H3/L3.5 (antibody, IgG1, name in Kabat numbering, V domains shown)
# VH: B1 VH
# VL: B1 VL with E1D, V3Q
# B14: AC10 H3/L3.32 (antibody, IgG1, name in Kabat numbering, V domains shown)
# VH: B1 VH
# VL: B1 VL with E1D, V50S
# B15: AC10 H3/L3.8 (antibody, IgG1, name in Kabat numbering, V domains shown)
# VH: B1 VH
# VL: B1 VL with E1D, S28D
# B16: AC10 H3/L3.48 (antibody, IgG1, name in Kabat numbering, V domains shown)
# VH: B1 VH
# VL: B1 VL with E1D, S95G
# B17: AC10 H3/L3.40 (antibody, IgG1, name in Kabat numbering, V domains shown)
# VH: B1 VH
# VL: B1 VL with E1D, E59Q
# B18: AC10 H3/L3.22 (antibody, IgG1, name in Kabat numbering, V domains shown)
# VH: B1 VH
# VL: B1 VL with E1D, S35T
# B19: AC10 H3/L3.12 (antibody, IgG1, name in Kabat numbering, V domains shown)
# VH: B1 VH
# VL: B1 VL with E1D, D30V
# B20: AC10 H3/L3.19 (antibody, IgG1, name in Kabat numbering, V domains shown)
# VH: B1 VH
# VL: B1 VL with E1D, D34S
# B21: AC10 H3/L3.6 (antibody, IgG1, name in Kabat numbering, V domains shown)
# VH: B1 VH
# VL: B1 VL with E1D, L4M
# B22: AC10 H3/L3.15 (antibody, IgG1, name in Kabat numbering, V domains shown)
# VH: B1 VH
# VL: B1 VL with E1D, F31Y
# B23: AC10 H3/L3.50 (antibody, IgG1, name in Kabat numbering, V domains shown)
# VH: B1 VH
# VL: B1 VL with E1D, S95L
# B24: AC10 H3/L3.4 (antibody, IgG1, name in Kabat numbering, V domains shown)
# VH: B1 VH
# VL: B1 VL with E1S
# B25: AC10 H3/L3.28 (antibody, IgG1, name in Kabat numbering, V domains shown)
# VH: B1 VH
# VL: B1 VL with E1D, N38D
# B26: AC10 H3/L3.51 (antibody, IgG1, name in Kabat numbering, V domains shown)
# VH: B1 VH
# VL: B1 VL with E1D, S95Y
# B27: AC10 H3/L3.39 (antibody, IgG1, name in Kabat numbering, V domains shown)
# VH: B1 VH
# VL: B1 VL with E1D, E59A
# B28: AC10 H3/L3.23 (antibody, IgG1, name in Kabat numbering, V domains shown)
# VH: B1 VH
# VL: B1 VL with E1D, S35N
# B29: AC10 H3/L3.54 (antibody, IgG1, name in Kabat numbering, V domains shown)
# VH: B1 VH
# VL: B1 VL with E1D, N96Y
# B30: AC10 H3/L3.38 (antibody, IgG1, name in Kabat numbering, V domains shown)
# VH: B1 VH
# VL: B1 VL with E1D, L58R
# B31: AC10 H3/L3.43 (antibody, IgG1, name in Kabat numbering, V domains shown)
# VH: B1 VH
# VL: B1 VL with E1D, A64D
# B32: AC10 H3/L3.33 (antibody, IgG1, name in Kabat numbering, V domains shown)
# VH: B1 VH
# VL: B1 VL with E1D, A54D
# B33: AC10 H3/L3.18 (antibody, IgG1, name in Kabat numbering, V domains shown)
# VH: B1 VH
# VL: B1 VL with E1D, D34N
# B34: AC10 H3/L3.55 (antibody, IgG1, name in Kabat numbering, V domains shown)
# VH: B1 VH
# VL: B1 VL with E1D, E97K
# B35: AC10 H3/L3.30 (antibody, IgG1, name in Kabat numbering, V domains shown)
# VH: B1 VH
# VL: B1 VL with E1D, V50L
# B36: AC10 H3/L3.21 (antibody, IgG1, name in Kabat numbering, V domains shown)
# VH: B1 VH
# VL: B1 VL with E1D, S35D
# B37: AC10 H3/L3.42 (antibody, IgG1, name in Kabat numbering, V domains shown)
# VH: B1 VH
# VL: B1 VL with E1D, I62V
# B38: AC10 H3/L3.49 (antibody, IgG1, name in Kabat numbering, V domains shown)
# VH: B1 VH
# VL: B1 VL with E1D, S95H
# B39: AC10 H3/L3.24 (antibody, IgG1, name in Kabat numbering, V domains shown)
# VH: B1 VH
# VL: B1 VL with E1D, Y36D
# B40: AC10 H3/L3.27 (antibody, IgG1, name in Kabat numbering, V domains shown)
# VH: B1 VH
# VL: B1 VL with E1D, N38A
# B41: AC10 H3/L3.3 (antibody, IgG1, name in Kabat numbering, V domains shown)
# VH: B1 VH
# VL: B1 VL with E1N
# B42: AC10 H3/L3.56 (antibody, IgG1, name in Kabat numbering, V domains shown)
# VH: B1 VH
# VL: B1 VL with E1D, E97N
# Biological target: T1, human CD30 (commercial, conjugated to digoxigenin) (human, UniProt P28908 19-379, limits assumed, conjugated to digoxigenin (DIG))
# T1 sequence (looked up): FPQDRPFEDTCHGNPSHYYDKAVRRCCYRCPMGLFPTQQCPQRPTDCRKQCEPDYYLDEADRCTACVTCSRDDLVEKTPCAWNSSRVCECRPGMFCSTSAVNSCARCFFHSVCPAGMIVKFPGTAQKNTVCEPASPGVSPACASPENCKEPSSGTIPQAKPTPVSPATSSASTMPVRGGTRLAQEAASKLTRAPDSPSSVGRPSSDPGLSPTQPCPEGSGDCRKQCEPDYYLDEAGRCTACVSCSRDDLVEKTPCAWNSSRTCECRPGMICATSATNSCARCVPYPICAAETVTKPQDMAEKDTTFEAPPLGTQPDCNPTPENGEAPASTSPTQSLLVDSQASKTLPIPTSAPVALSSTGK
# Assay: AlphaScreen competition
row,Binder,Fold IC50 vs H3/L3
1,B1,1.24 fold
2,B2,0.78 fold
3,B3,1.26 fold
4,B4,1.36 fold
5,B5,0.32 fold
6,B6,0.58 fold
7,B7,1.08 fold
8,B8,1.8 fold
9,B9,1.21 fold
10,B10,1.61 fold
11,B11,0.47 fold
12,B12,0.48 fold
13,B13,1.32 fold
14,B14,0.32 fold
15,B15,0.94 fold
16,B16,0.29 fold
17,B17,0.87 fold
18,B18,0.46 fold
19,B19,1.15 fold
20,B20,1.13 fold
21,B21,1.64 fold

row,Binder,Fold IC50 vs H3/L3
1,B22,0.63 fold
2,B23,0.02 fold
3,B24,1.04 fold
4,B25,0.41 fold
5,B26,0.02 fold
6,B27,0.85 fold
7,B28,0.71 fold
8,B29,0.96 fold
9,B30,1.46 fold
10,B31,1.16 fold
11,B32,0.26 fold
12,B33,1.45 fold
13,B34,0.27 fold
14,B35,0.39 fold
15,B36,0.81 fold
16,B37,1.55 fold
17,B38,0.01 fold
18,B39,0.46 fold
19,B40,0.38 fold
20,B41,1.66 fold
21,B42,0.64 fold
